Patent US8124332B2, “Methods of using sIP-10, CD26 inhibitors and CXCR3 levels in a sample to assess clearance of infection, response to interferon therapy, and treating chronic infections” (Institut Pasteur, priority 2006, dated 2012)

How the values were obtained:
[1] = molecular target: T1, CXCR3 (Homo sapiens, UniProt P49682); assay: Ca++ flux in CHO cells transfected with a CXCR3 expressing plasmid; type: cell-based; parameters: transfected with a plasmid encoding the full-length open reading frame of CXCR3; expressed in transfected cells; plasmid from Dr. C P Tensen, Leiden
T1 sequence (P49682 1-368): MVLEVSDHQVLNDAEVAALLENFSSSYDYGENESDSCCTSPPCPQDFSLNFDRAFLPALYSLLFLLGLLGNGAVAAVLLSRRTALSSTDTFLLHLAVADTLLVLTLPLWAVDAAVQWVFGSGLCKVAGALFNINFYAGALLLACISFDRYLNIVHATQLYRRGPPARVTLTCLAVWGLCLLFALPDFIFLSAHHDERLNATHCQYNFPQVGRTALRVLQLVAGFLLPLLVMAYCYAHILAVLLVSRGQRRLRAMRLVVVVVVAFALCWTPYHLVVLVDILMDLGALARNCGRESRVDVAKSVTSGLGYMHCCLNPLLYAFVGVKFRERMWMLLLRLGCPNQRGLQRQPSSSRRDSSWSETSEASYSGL
Source text: In order to test the hypothesis, it was necessary to generate novel reagents. First, recombinant full length CXCL10 (1-77) was exposed to recombinant DPP4 and cleavage was monitored by SELDI mass spectroscopy (FIG. 18A). […] Next, the inventors performed in vitro studies confirming that CXCL10 (1-77) but not CXCL10 (3-77) is capable of: (i) directing the migration of CXCR3^+ cells (FIG. 18B); (ii) mediating receptor internalization in primary PBMCs (not shown); and (iii) triggering a Ca^++ flux in CHO cells transfected with a CXCR3 expressing plasmid (FIGS. 18C, 18D). […] To date, however, there has been no in vivo evidence to support a role for CXCL10 antagonism in disease pathogenesis. […]
To generate CXCL10 (3-77), recombinant human CXCL10 (Peprotech, Rocky Hill, N.Y. USA) was incubated with recombinant DPP4 (Sigma) in a 100 mM Tris-HCL pH 8 solution, for 2 h at 37° C. […] Arrays were incubated and washed as per manufacturers instructions and analyzed using the ProteinChip System Series 4000 (Ciphergen). […] Data were analyzed using CiphergenExpress Software. […] Lymphocytes were allowed to migrate for 2 hours at 37° C. and cells in the bottom chamber were counted using a Guava cytometer (Guava Technologies, C A, USA). Calcium-flux assays: Increased intracellular [Ca^2+] in response to CXCR3 signaling were monitored by FACS. […] Ca^++ release was measured using a Canto II Cytometer. […]

[2] = test system: CXCR3+ cells; assay: Lymphocyte chemotaxis assay; type: cell-based, human; details: PHA-T blasts, chemokine in bottom chamber, 2 hours at 37° C.
[3] = molecular target: T1, CXCR3; assay: Receptor internalization in primary PBMCs; type: cell-based; parameters: endogenous in cells; host or cells: primary PBMCs
Source text: In order to test the hypothesis, it was necessary to generate novel reagents. First, recombinant full length CXCL10 (1-77) was exposed to recombinant DPP4 and cleavage was monitored by SELDI mass spectroscopy (FIG. 18A). […] Next, the inventors performed in vitro studies confirming that CXCL10 (1-77) but not CXCL10 (3-77) is capable of: (i) directing the migration of CXCR3^+ cells (FIG. 18B); (ii) mediating receptor internalization in primary PBMCs (not shown); and (iii) triggering a Ca^++ flux in CHO cells transfected with a CXCR3 expressing plasmid (FIGS. 18C, 18D). […] To date, however, there has been no in vivo evidence to support a role for CXCL10 antagonism in disease pathogenesis. In part, the challenge in establishing in vivo evidence of this mechanism of immune regulation is due to the inability to discriminate the two forms of the chemokine by a sensitive, immune-based assay.

[4] = test system: plasma DPP activity (X-prolyl DPP); details: plasma of patients with HCV infection

## CXCL10 (1-77): recombinant full length secreted human CXCL10, agonist form
[1]; CHO cells transfected with CXCR3
  triggering a Ca++ flux: capable
[2]
  directing the migration of CXCR3+ cells: capable
[3]
  mediating receptor internalization: capable

## CXCL10 (3-77): NH2-terminal truncated CXCL10 generated by DPP4 cleavage of two amino acids, antagonist form
[1]; 5 min pre-treatment, then CXCL10 (1-77)
  antagonism of CXCL10 (1-77) induced Ca++ mobilization: antagonized

## isoleucine-proline-isoleucine [IPI]
[4]
  inhibition of the enzymatic activity (plasma DPP activity): > 98%
